From patent publication EP4538286A1 (Adlai Nortye Biopharma Co., Ltd., dated 2025)

Experiments:
human CTLA4 protein = target: T1, human CTLA4 protein (human, UniProt P16410 37-162, limits assumed); test: ELISA, plate-coated human CTLA4
T1 construct: bought protein coated on the ELISA plate; also called human CTLA4 antigen
T1 sequence (looked up): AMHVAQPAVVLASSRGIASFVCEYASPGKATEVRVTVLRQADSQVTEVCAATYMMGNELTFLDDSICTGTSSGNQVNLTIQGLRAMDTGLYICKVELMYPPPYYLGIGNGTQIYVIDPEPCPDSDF

human CD28 protein = target: T2, human CD28 protein (human, UniProt P10747 19-152); test: ELISA, plate-coated human CD28
T2 construct: bought protein coated on the ELISA plate; also called human CD28 antigen
T2 sequence (P10747 19-152 limits assumed): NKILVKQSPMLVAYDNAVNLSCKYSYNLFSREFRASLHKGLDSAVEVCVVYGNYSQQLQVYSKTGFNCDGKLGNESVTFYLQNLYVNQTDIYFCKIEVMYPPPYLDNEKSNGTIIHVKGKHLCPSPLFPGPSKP

binding result (human CTLA4 protein) | binding result (human CD28 protein) | Binder
no binding | no binding | Abs-254 (other, the paragraph that names the antibody is followed; also called CD80 IgV mutant I69W/A71E-sugemalimab fusion) heavy: VIHVTKEVKEVATLSCGHNVSVEELAQTRIYWQKEKKMVLTMMSGDMNIWPEYKNRTIFDITNNLSIVWLELRPSDEGTYECVVLKYEKDAFKREHLAEVTLSVKADGGGGSGGGGSGGGGSGGGGSGEVQLLESGGGLVQPGGSLRLSCAASGFTFSSYAMSWVRQAPGKGLEWVSGISGSGGFTYYADSVKGRFTISRDNSKNTLYLQMNSLRAEDTAVYYCAKPPRGYNYGPFDYWGQGTLVTVSSASTKGPSVFPLAPCSRSTSESTAALGCLVKDYFPEPVTVSWNSGALTSGVHTFPAVLQSSGLYSLSSVVTVPSSSLGTKTYTCNVDHKPSNTKVDKRVESKYGPPCPPCPAPEFLGGPSVFLFPPKPKDTLMISRTPEVTCVVVDVSQEDPEVQFNWYVDGVEVHNAKTKPREEQFNSTYRVVSVLAVLHQDWLNGKEYKCKVSNKGLPSSIEKTISKAKGQPREPQVYTLPPSQEEMTKNQVSLTCLVKGFYPSDIAVAWESNGQPENNYKTTPPVLDSDGSFFLYSRLTVDKSRWQEGNVFSCSVMHEALHAHYTQKSLSLSLGK light: SYVLTQPPSVSVAPGQTARITCGGNNIGSKSVHWYQQKPGQAPVLVVYDDSDRPSGIPERFSGSNSGNTATLTISRVEAGDEADYYCQVWDSSSDHVVFGGGTKLTVLGQPKAAPSVTLFPPSSEELQANKATLVCLISDFYPGAVTVAWKADSSPVKAGVETTTPSKQSNNKYAASSYLSLTPEQWKSHRSYSCQVTHEGSTVEKTVAPTECS
no binding | no binding | Abs-259 (other, the paragraph that names the antibody is followed; also called CD80 IgV mutant A26M/A71E/L85N-sugemalimab fusion) heavy: VIHVTKEVKEVATLSCGHNVSVEELMQTRIYWQKEKKMVLTMMSGDMNIWPEYKNRTIFDITNNLSIVILELRPSDEGTYECVVNKYEKDAFKREHLAEVTLSVKADGGGGSGGGGSGGGGSGGGGSGEVQLLESGGGLVQPGGSLRLSCAASGFTFSSYAMSWVRQAPGKGLEWVSGISGSGGFTYYADSVKGRFTISRDNSKNTLYLQMNSLRAEDTAVYYCAKPPRGYNYGPFDYWGQGTLVTVSSASTKGPSVFPLAPCSRSTSESTAALGCLVKDYFPEPVTVSWNSGALTSGVHTFPAVLQSSGLYSLSSVVTVPSSSLGTKTYTCNVDHKPSNTKVDKRVESKYGPPCPPCPAPEFLGGPSVFLFPPKPKDTLMISRTPEVTCVVVDVSQEDPEVQFNWYVDGVEVHNAKTKPREEQFNSTYRVVSVLAVLHQDWLNGKEYKCKVSNKGLPSSIEKTISKAKGQPREPQVYTLPPSQEEMTKNQVSLTCLVKGFYPSDIAVAWESNGQPENNYKTTPPVLDSDGSFFLYSRLTVDKSRWQEGNVFSCSVMHEALHAHYTQKSLSLSLGK light: SYVLTQPPSVSVAPGQTARITCGGNNIGSKSVHWYQQKPGQAPVLVVYDDSDRPSGIPERFSGSNSGNTATLTISRVEAGDEADYYCQVWDSSSDHVVFGGGTKLTVLGQPKAAPSVTLFPPSSEELQANKATLVCLISDFYPGAVTVAWKADSSPVKAGVETTTPSKQSNNKYAASSYLSLTPEQWKSHRSYSCQVTHEGSTVEKTVAPTECS
no binding | no binding | Abs-255 (other, the paragraph that names the antibody is followed; also called CD80 IgV mutant H18W/A26M/A71E/L85N-sugemalimab fusion) heavy: VIHVTKEVKEVATLSCGWNVSVEELMQTRIYWQKEKKMVLTMMSGDMNIWPEYKNRTIFDITNNLSIVILELRPSDEGTYECVVNKYEKDAFKREHLAEVTLSVKADGGGGSGGGGSGGGGSGGGGSGEVQLLESGGGLVQPGGSLRLSCAASGFTFSSYAMSWVRQAPGKGLEWVSGISGSGGFTYYADSVKGRFTISRDNSKNTLYLQMNSLRAEDTAVYYCAKPPRGYNYGPFDYWGQGTLVTVSSASTKGPSVFPLAPCSRSTSESTAALGCLVKDYFPEPVTVSWNSGALTSGVHTFPAVLQSSGLYSLSSVVTVPSSSLGTKTYTCNVDHKPSNTKVDKRVESKYGPPCPPCPAPEFLGGPSVFLFPPKPKDTLMISRTPEVTCVVVDVSQEDPEVQFNWYVDGVEVHNAKTKPREEQFNSTYRVVSVLAVLHQDWLNGKEYKCKVSNKGLPSSIEKTISKAKGQPREPQVYTLPPSQEEMTKNQVSLTCLVKGFYPSDIAVAWESNGQPENNYKTTPPVLDSDGSFFLYSRLTVDKSRWQEGNVFSCSVMHEALHAHYTQKSLSLSLGK light: SYVLTQPPSVSVAPGQTARITCGGNNIGSKSVHWYQQKPGQAPVLVVYDDSDRPSGIPERFSGSNSGNTATLTISRVEAGDEADYYCQVWDSSSDHVVFGGGTKLTVLGQPKAAPSVTLFPPSSEELQANKATLVCLISDFYPGAVTVAWKADSSPVKAGVETTTPSKQSNNKYAASSYLSLTPEQWKSHRSYSCQVTHEGSTVEKTVAPTECS
no binding | no binding | Abs-258 (other, the paragraph that names the antibody is followed; also called CD80 IgV mutant H18W/A26C/A71E/L85D-sugemalimab fusion) heavy: VIHVTKEVKEVATLSCGWNVSVEELCQTRIYWQKEKKMVLTMMSGDMNIWPEYKNRTIFDITNNLSIVILELRPSDEGTYECVVDKYEKDAFKREHLAEVTLSVKADGGGGSGGGGSGGGGSGGGGSGEVQLLESGGGLVQPGGSLRLSCAASGFTFSSYAMSWVRQAPGKGLEWVSGISGSGGFTYYADSVKGRFTISRDNSKNTLYLQMNSLRAEDTAVYYCAKPPRGYNYGPFDYWGQGTLVTVSSASTKGPSVFPLAPCSRSTSESTAALGCLVKDYFPEPVTVSWNSGALTSGVHTFPAVLQSSGLYSLSSVVTVPSSSLGTKTYTCNVDHKPSNTKVDKRVESKYGPPCPPCPAPEFLGGPSVFLFPPKPKDTLMISRTPEVTCVVVDVSQEDPEVQFNWYVDGVEVHNAKTKPREEQFNSTYRVVSVLAVLHQDWLNGKEYKCKVSNKGLPSSIEKTISKAKGQPREPQVYTLPPSQEEMTKNQVSLTCLVKGFYPSDIAVAWESNGQPENNYKTTPPVLDSDGSFFLYSRLTVDKSRWQEGNVFSCSVMHEALHAHYTQKSLSLSLGK light: SYVLTQPPSVSVAPGQTARITCGGNNIGSKSVHWYQQKPGQAPVLVVYDDSDRPSGIPERFSGSNSGNTATLTISRVEAGDEADYYCQVWDSSSDHVVFGGGTKLTVLGQPKAAPSVTLFPPSSEELQANKATLVCLISDFYPGAVTVAWKADSSPVKAGVETTTPSKQSNNKYAASSYLSLTPEQWKSHRSYSCQVTHEGSTVEKTVAPTECS
no binding | no binding | Abs-261 (other, the paragraph that names the antibody is followed; also called CD80 IgV mutant A26C/A71E/L85D-sugemalimab fusion) heavy: VIHVTKEVKEVATLSCGHNVSVEELCQTRIYWQKEKKMVLTMMSGDMNIWPEYKNRTIFDITNNLSIVILELRPSDEGTYECVVDKYEKDAFKREHLAEVTLSVKADGGGGSGGGGSGGGGSGGGGSGEVQLLESGGGLVQPGGSLRLSCAASGFTFSSYAMSWVRQAPGKGLEWVSGISGSGGFTYYADSVKGRFTISRDNSKNTLYLQMNSLRAEDTAVYYCAKPPRGYNYGPFDYWGQGTLVTVSSASTKGPSVFPLAPCSRSTSESTAALGCLVKDYFPEPVTVSWNSGALTSGVHTFPAVLQSSGLYSLSSVVTVPSSSLGTKTYTCNVDHKPSNTKVDKRVESKYGPPCPPCPAPEFLGGPSVFLFPPKPKDTLMISRTPEVTCVVVDVSQEDPEVQFNWYVDGVEVHNAKTKPREEQFNSTYRVVSVLAVLHQDWLNGKEYKCKVSNKGLPSSIEKTISKAKGQPREPQVYTLPPSQEEMTKNQVSLTCLVKGFYPSDIAVAWESNGQPENNYKTTPPVLDSDGSFFLYSRLTVDKSRWQEGNVFSCSVMHEALHAHYTQKSLSLSLGK light: SYVLTQPPSVSVAPGQTARITCGGNNIGSKSVHWYQQKPGQAPVLVVYDDSDRPSGIPERFSGSNSGNTATLTISRVEAGDEADYYCQVWDSSSDHVVFGGGTKLTVLGQPKAAPSVTLFPPSSEELQANKATLVCLISDFYPGAVTVAWKADSSPVKAGVETTTPSKQSNNKYAASSYLSLTPEQWKSHRSYSCQVTHEGSTVEKTVAPTECS
